Here are results for 29 sequences from the supplement of paper PMC10567573.

± gives the standard deviation.

This data set is described as follows: protein stability index of a GFP-peptide fusion (GPS, HEK-293T) (PSI 1-6); higher = more stable. Conditions: c terminus: a fixed tail appended.
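Further: 24-mer peptide tiles fused after GFP, lentivirally expressed, FACS-sorted into six equal bins by GFP/DsRed ratio, decoded by Illumina sequencing, PSI is the read-weighted mean bin number.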

For the sequence NIHQLQNRLSELEVANKDLTERKY [SASS6], the protein stability index by setting is: (treatment: DMSO) 3.42 ± 0.15; (treatment: MLN4924 1 uM, 8 h) 3.62 ± 0.34.
With NIYETGDVCISILHPPVDDPQSGE [CDC34], the protein stability index runs as follows: (treatment: DMSO) 4.52 ± 0.11; (treatment: MLN4924 1 uM, 8 h) 4.51 ± 0.29.
For NLISPVRNGAVRRFGQTIQSFTLR [NET1], in that order: 2.65 ± 0.32 and 2.7 ± 0.14.
For NLLNMAYGVKSPLSLIARFSPIAI [ELAVL3], in that order: 2.83 ± 0.58 and 2.81 ± 0.65.
For NLTIRAGALTGKENNMLQPETHIF [DMRTC1], in that order: 2.95 ± 0.21 and 3.17 ± 0.39.
As for NNSNLQRMGSSESTDSGFCLDSPG [CDC25A], the protein stability index is 4.43 ± 0.92 (treatment: DMSO) and 4.8 ± 0.3 (treatment: MLN4924 1 uM, 8 h).
For NPMDMGTIKKRLENNYYWSASECM [BRD3], in that order: 2.34 ± 0.31 and 2.65 ± 0.082.
For NREVATNSELVQSGKSEISELRRT [KRT17], in that order: 5 ± 0.22 and 5.09 ± 0.24.
As to NRMHESMKLFDSICNNKWFTDTSI [GNAI1], the protein stability index was 2.38 ± 0.27 (treatment: DMSO) and 2.33 ± 0.45 (treatment: MLN4924 1 uM, 8 h).
For NRPSFDAILYYYQSGGRLRRPVNV [KCNA1], in that order: 2.24 ± 0.085 and 2.37 ± 0.14.
For NSAEACQYVITHAKVNILLVENDQ [ACSBG2], in that order: 2.18 ± 0.52 and 2.62 ± 0.25.
For NSTSYSNYYRTWNVVVHDWLYYYA [SOAT1], in that order: 2.63 ± 0.52 and 2.56 ± 0.55.
For the sequence NSVISVCSSSNLAGNDDSFGSLPS [DLC1], the protein stability index came to 4.18 ± 0.21 (treatment: DMSO) and 4.23 ± 0.24 (treatment: MLN4924 1 uM, 8 h).
For NTEVVQVAAGRTQKAGVTRSGRLI [NEK8], in that order: 4.32 ± 0.21 and 4.4 ± 0.16.
For NVKLQELINHKKAEDTEKKDEPSK [CEP70], in that order: 5.35 ± 0.16 and 5.2 ± 0.21.
For PALCFAAAIFSLFFVPLSYLLMVT [TMEM175], in that order: 3.03 ± 0.093 and 3.31 ± 0.21.
In the case of PATGGAIPSWQIRTVKLIRYVSNW [PKD2L1], the protein stability index reads like this: (treatment: DMSO) 2.09 ± 0.24; (treatment: MLN4924 1 uM, 8 h) 2.24 ± 0.39.
For the sequence PCAGSTSLSHSPGCSSTQGNGRPG [LCOR], the protein stability index by setting is: (treatment: DMSO) 3.74 ± 0.42; (treatment: MLN4924 1 uM, 8 h) 4.16 ± 0.33.
For the sequence PCLDQTRVKLTKRSGHTQTDYINA [PTPN9], the protein stability index reads like this: (treatment: DMSO) 3.99 ± 0.59; (treatment: MLN4924 1 uM, 8 h) 3.91 ± 0.1.
As for PCPSTTCCRACSVSFSTGAGGWSN [BET1L], the protein stability index by setting is: (treatment: DMSO) 2.27 ± 0.91; (treatment: MLN4924 1 uM, 8 h) 2.02 ± 0.47.
As for PDGGRADEWACELRLFGRVLERAA [P3H4], the protein stability index runs as follows: (treatment: DMSO) 2.46 ± 0.3; (treatment: MLN4924 1 uM, 8 h) 2.62 ± 0.38.
With PDKECRRCMQCDAKFDFLTRKHHC [ZFYVE21], the protein stability index was 3.91 ± 0.078 (treatment: DMSO) and 4 ± 0.27 (treatment: MLN4924 1 uM, 8 h).
Consider PDKEEQLPFGPFNGTAWTYHSQDE [PKD2L1], for which the protein stability index (treatment: DMSO) was determined as 4.67 ± 0.1 and the protein stability index (treatment: MLN4924 1 uM, 8 h) was found to be 4.76 ± 0.38.
For PDLVKGPWTKEEDQKVIELVKKYG [MYBL2], in that order: 3.86 ± 0.22 and 3.99 ± 0.21.
In the case of PDQEAEPQEAAGAQGRAGAPVPEP [EPB41L3], the protein stability index by setting is: (treatment: DMSO) 5.69 ± 0.21; (treatment: MLN4924 1 uM, 8 h) 5.69 ± 0.23.
For PDSFYELKSQPLPLRSSLPISLQA [TFE3], in that order: 3.14 ± 0.15 and 3.26 ± 0.29.
As to PEQALDTPGDCPPGRRDEDAGEGI [TMEM175], the protein stability index came to 5.53 ± 0.23 (treatment: DMSO) and 5.43 ± 0.17 (treatment: MLN4924 1 uM, 8 h).
Take PEQQVDMHDMLLEELAPVGTAHIP [ZNF449]: the protein stability index (treatment: DMSO) stood at 4.68 ± 0.28 and the protein stability index (treatment: MLN4924 1 uM, 8 h) stood at 4.8 ± 0.085.
For PERSYVFNGDFVDRGKDSVEILMI [PPEF2], in that order: 2 ± 0.38 and 2.23 ± 0.31.
